Legend:
IL-4R with mouse Fc-tag = target: T1, IL-4R with mouse Fc-tag (human, UniProt P24394 26-232); assay: competitive ELISA: antibody dilutions with 0.5 µg/mL IL-4R-mouse Fc on plate-captured biotinylated IL-4, anti-mouse-Fc-HRP
T1 construct: not shown: mouse Fc-tag
Experimental: Competitive ELISA: The second assay was designed to identify the anti-IL-4Rα antibodies that were capable of inhibiting the binding of hIL-4 to hIL-4Rα, as measured by competitive ELISA. Briefly, a 96-well plate was coated with 100 μL, 2.5 μg/mL SA (Streptavidin) solution, and incubated overnight at 4° C., followed by washed with TBST. Biotinylated IL-4 with the final concentration of 2 μg/mL was added into the plate and incubated at 37° C. for 1 hour. Then the plate was washed with TBST. The anti-IL-4Rα antibody samples were first diluted to 10 μg/mL, and 1004, of the sample was added to the first row of wells. 10 μg/mL anti-IL-4Rα antibody samples were then serially diluted at a 1:2 ratio and added to each of the remaining rows of wells. 504 of 0.5 μg/mL IL-4R with mouse Fc-tag was added to each well. After incubating for 1 hour at 37° C., the wells were washed with TBST 6 times. 100 µL of anti-mouse-Fc-HRP (1:10,000) was then added to each well and incubated for 1 hour at 37° C. The wells were washed with TBST 6 times before adding 1004/well of TMB, and incubated for 5-10 minutes at 37° C. 2M H₂SO₄ was used to stop the reaction. The ELISA results (OD450) were read, and the binding curves were generated by GraphPad Prism 5 software (GraphPad Software). Reference antibody Dupilumab (Regeneron, anti-IL-4Rα antibody) and AMG317 (Amgen, anti-IL-4Rα antibody) were used as positive controls, Human IgG4, kappa Isotype Control (Cat #HG4K, Sino Biological Inc.) was used as negative control, abbreviated as Human IgG4 in FIG. 1.

human IL-4Rα on cells = human IL-4Rα on cells (human, UniProt P24394 26-825); assay: cell-based or functional assay

- IC50 (IL-4R with mouse Fc-tag): 0.0891 µg/mL
- IC50(nM), neutralization of hIL-13 (4 ng/ml), HEK-Blue IL-4/IL-13 STAT6-SEAP reporter cells (human IL-4Rα on cells): 0.649 nM
Substance: AMG317 (antibody)

Source: patent US20230374144A1 (STAIDSON BEIJING BIOPHARMACEUTICAL, published 2023)
